Measurements from patent US20250295734A1, “ANTICOAGULANT PROTEINS AND THEIR USE FOR TREATING DISEASES ASSOCIATED WITH THE ACTIVATION OF NEUTROPHILS” (BIOXODES, priority 2018, published 2025).

Columns and labels:
Factor XIIa = target: T1, Factor XIIa (Homo sapiens, UniProt P00748); settings: cited from earlier work
T1 construct: The resulting α-FXIIa has a heavy chain of 50 kDa, connected to a light chain of 28 kDa
T1 sequence (P00748 20-372 limits assumed): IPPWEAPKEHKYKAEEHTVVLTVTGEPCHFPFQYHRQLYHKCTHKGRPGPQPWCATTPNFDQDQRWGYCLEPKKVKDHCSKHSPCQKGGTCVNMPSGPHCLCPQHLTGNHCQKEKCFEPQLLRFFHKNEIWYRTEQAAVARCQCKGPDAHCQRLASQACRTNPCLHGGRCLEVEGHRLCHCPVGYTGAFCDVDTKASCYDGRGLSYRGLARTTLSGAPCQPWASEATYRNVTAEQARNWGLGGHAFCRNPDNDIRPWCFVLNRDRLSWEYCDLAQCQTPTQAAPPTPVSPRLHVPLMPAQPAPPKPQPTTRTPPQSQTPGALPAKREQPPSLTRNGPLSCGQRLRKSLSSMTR
T1 sequence (P00748 373-615 limits assumed): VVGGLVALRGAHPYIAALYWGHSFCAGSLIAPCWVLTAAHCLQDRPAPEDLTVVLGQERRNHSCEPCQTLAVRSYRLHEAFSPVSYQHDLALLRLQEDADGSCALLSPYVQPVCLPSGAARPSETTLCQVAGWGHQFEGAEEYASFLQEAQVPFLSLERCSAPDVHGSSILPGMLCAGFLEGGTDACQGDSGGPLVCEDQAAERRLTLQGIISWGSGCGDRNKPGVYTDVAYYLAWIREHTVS

kallikrein = kallikrein (Homo sapiens, UniProt P03952); settings: cited from earlier work
Sequence of kallikrein (P03952 20-390 limits assumed): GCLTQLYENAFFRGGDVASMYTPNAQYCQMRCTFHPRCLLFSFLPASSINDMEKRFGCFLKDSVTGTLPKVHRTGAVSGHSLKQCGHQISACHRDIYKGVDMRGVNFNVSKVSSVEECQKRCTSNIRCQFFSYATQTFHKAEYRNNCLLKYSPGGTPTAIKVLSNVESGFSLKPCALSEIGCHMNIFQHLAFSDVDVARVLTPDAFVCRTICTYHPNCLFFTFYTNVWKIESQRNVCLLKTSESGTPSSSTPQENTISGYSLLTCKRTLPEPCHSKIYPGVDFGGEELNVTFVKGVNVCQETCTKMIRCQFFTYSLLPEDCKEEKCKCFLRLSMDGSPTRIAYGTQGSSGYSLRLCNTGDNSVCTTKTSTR
Sequence of kallikrein (P03952 391-638 limits assumed): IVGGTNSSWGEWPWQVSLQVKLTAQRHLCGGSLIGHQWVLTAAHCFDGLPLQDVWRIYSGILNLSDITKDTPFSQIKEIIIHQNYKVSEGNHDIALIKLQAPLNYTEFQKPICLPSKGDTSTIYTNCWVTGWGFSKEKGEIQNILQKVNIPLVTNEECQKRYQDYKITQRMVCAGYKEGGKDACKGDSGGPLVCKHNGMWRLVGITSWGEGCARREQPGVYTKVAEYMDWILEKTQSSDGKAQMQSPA

plasminogen = plasminogen (Homo sapiens, UniProt P00747); settings: cited from earlier work
Sequence of plasminogen (P00747 20-810 limits assumed, species assumed): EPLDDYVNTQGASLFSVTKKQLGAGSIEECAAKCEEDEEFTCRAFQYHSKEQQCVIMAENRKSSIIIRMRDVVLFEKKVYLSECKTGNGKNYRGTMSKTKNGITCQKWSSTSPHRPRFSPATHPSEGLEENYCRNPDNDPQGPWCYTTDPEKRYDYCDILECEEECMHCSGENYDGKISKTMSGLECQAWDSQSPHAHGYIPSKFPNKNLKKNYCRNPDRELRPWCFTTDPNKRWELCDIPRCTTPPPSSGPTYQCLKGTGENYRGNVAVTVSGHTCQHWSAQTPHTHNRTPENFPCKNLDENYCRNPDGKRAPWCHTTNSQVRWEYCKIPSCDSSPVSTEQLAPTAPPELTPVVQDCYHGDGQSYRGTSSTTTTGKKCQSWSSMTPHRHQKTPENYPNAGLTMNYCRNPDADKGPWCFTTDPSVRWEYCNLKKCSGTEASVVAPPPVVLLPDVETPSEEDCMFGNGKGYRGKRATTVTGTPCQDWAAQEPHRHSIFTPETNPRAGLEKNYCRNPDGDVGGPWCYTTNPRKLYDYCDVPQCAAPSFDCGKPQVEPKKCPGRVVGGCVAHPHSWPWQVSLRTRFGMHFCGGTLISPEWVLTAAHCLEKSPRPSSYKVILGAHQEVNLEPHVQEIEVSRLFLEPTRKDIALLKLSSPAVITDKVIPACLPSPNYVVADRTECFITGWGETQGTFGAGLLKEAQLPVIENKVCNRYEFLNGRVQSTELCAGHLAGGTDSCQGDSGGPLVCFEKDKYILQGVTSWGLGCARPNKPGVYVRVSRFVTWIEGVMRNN

[1] = Quantification of Ir-CPI in plasma samples by ELISA; type: in vivo, mice (C57BL/6JRj); settings: iv bolus 20.5 mg/kg + infusion 3.7 mg/kg/h; after about 150 min of procedure; Mean±SEM, n=5
Protocol: Plasma (around 250 μL) was centrifuged at 18-22° C./at 2500 g during 15 min. Plasma was centrifuged again (18-22° C. at 2500 g during 15 min) and was stored into a polypropylene tube at −80° C. Plasma samples were later sent frozen on dry ice for dosage of the circulating concentration of Ir-CPI by ELISA.
The quantification of circulating Ir-CPI in the plasma samples was assessed by ELISA at Eurofins, ADME Bioanalyses (Vergèze, France). A sandwich immuno-assay was carried out using two anti-Ir-CPI antibodies. The capture monoclonal antibody (Ir-CPI3) was coated to microtitration plates (Nunc, ThermoFischer Scientific, USA) at 1 μg/mL overnight at 4° C. in PBS (Hyclone, USA). Wells were blocked with PBS BSA 2% (Sigma-Aldrich, USA) at room temperature (RT) for 1 h and were then washed. Samples were added into the wells and incubated for 2 h at RT. The biotinylated detection antibody (L39-biotin), previously diluted in PBS BSA 1% (Sigma-Aldrich, USA), was added to the wells and complemented with streptavidin-HRP (REF) diluted in PBS BSA 1%. TMB SureBlue (KPL, REF) and H2SO4 IN (VWR, USA) were used for spectrophotometric detection (450 nm).

human neutrophils = assay: Phagocytosis assay with pHrodo E. coli bioparticles; type: cell-based; settings: for neutrophil phagocytic activity: 3 donors
Protocol: The effect of Ir-CPI on the phagocytic activity of human neutrophils was assessed. For this purpose, freshly isolated neutrophils from 3 donors were pre-treated for 1 h with recombinant Ir-CPI at 2 different concentrations (5.0 or 15.3 μg/mL) and then incubated in the presence of pH-rodo® E. coli bioparticles (Sartorius). To evaluate the phagocytic activity, fluorescence was monitored every 15 min for up to 48 hours.
Neutrophils were directly isolated from whole blood by using the EasySep™ Direct Human Neutrophil Isolation Kit (StemCell) and according to the manufacturer's protocol. The purification is a negative selection (elimination of unwanted cell populations) to obtain intact neutrophils.
pHrodo® Green E. coli Bioparticles were resuspended at 1 mg/mL in PBS, vortexed and sonicated according to the manufacturer's protocol and then stored at 4° C. overnight. Then, 25.000 freshly isolated neutrophils, resuspended in RPMI 1640 medium containing 10% of FBS and supplements (2 mM Glutamine, 1% NEAA, 1 mM Sodium pyruvate, 50 μM B-mercaptoethanol and 50 μg/ml Gentamycin), were seeded per well in a 96 well-plate and preincubated for 1 h at 37° C., 5% CO2 with Ir-CPI at two different concentrations (2 μM and 0.65 μM). Then, pHrodo® Green E. coli Bioparticles were added at 10 μg/well and the plate was incubated in the Incucyte® Live-Cell Analysis System. Pictures were taken every 15 minutes for 48 hours. Two negative controls were performed: (1) only the neutrophils were seeded in absence of Ir-CPI and without particles, and (2) neutrophils were seeded in absence of Ir-CPI and incubated with the particles. All conditions were performed in triplicates.
To analyse neutrophil phagocytosis, the Green total area (μm2/image) was measured in each well every 15 minutes for 48 hours (2 pictures/well). Briefly, the IncuCyte® Basic Analysis software allows for the quantification of fluorescent object metrics in real-time. […]

plasmin = plasmin (Homo sapiens, UniProt P00747); settings: cited from earlier work
Sequence of plasmin (P00747 97-580 limits assumed, species assumed): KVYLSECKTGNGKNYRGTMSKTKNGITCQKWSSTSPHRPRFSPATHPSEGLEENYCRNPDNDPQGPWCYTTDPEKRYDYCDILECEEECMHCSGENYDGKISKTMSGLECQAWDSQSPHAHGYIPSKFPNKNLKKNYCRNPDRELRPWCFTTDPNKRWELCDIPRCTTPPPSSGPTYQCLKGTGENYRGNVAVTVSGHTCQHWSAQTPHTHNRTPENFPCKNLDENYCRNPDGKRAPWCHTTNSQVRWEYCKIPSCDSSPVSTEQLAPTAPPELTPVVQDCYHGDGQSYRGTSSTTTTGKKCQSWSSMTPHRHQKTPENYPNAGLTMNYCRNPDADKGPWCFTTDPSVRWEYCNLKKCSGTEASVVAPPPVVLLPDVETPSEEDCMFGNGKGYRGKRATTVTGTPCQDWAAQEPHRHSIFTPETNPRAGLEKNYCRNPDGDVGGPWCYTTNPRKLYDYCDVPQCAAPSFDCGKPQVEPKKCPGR
Sequence of plasmin (P00747 581-810 limits assumed, species assumed): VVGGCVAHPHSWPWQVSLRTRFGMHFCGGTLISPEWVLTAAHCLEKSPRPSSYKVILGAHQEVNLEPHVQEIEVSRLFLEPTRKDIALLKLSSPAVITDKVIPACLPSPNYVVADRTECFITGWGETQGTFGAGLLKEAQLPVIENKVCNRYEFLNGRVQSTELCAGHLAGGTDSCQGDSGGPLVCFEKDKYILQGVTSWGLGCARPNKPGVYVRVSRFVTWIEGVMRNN

[2] = Tail bleeding time assessment; type: in vivo, mice (C57BL/6JRj)
Protocol: Tail bleeding time assessment under NaCl or Ir-CPI treatment (Low or High dose) was performed as previously described (Mezouar et al., 2015) on anesthetized wild-type (i.e. cancer-free) or cancer-bearing mice. Briefly, a 1- to 3-mm portion of the distal tail was removed from mice; the tail was immersed in isotonic saline (37° C.), and the time to complete cessation of blood flow recorded. The bleeding time was monitored for a maximum of 10 min.

[3] = Dissolution in NaCl 0.9% (solubility limit); type: physicochemical
Protocol: Ir-CPI was freshly prepared on the testing day by dissolution in NaCl 0.9% to reach the concentration of 50 mg/mL (corresponding to the maximal concentration to reach to avoid solubility issues).

[4] = system: venous thrombus formation; settings: dose-dependent; cited from earlier work

B1: Ir-CPI: Ixodes ricinus salivary gland polypeptide, contact phase inhibitor, MW=7660 Da; sequence SEQ ID NO: 1 or SEQ ID NO: 2 (protein)
chain: ANHKGRGRPAKCKLPPDDGPCRARIPSYYFDRKTKTCKEFMYGGCEGNENNFENITTCQEECRAKKV
Question: With B1 as the molecule, how does the “activation of Factor XI by Factor XIIa” value (Factor XIIa) read?
Answer: inhibit activation

Question: What about the “activation of PK by Factor XIIa” value (Factor XIIa) of the same molecule?
Answer: inhibit activation

Question: What about the binding to kallikrein (kallikrein) of the same molecule?
Answer: binds

Question: And the binding to plasminogen (plasminogen)?
Answer: unable to bind

Question: What about the Mean plasma concentration [1] of the same molecule?
Answer: 6480 ± 1020 ng/mL

Question: And the neutrophil phagocytic activity (human neutrophils; recombinant Ir-CPI 5.0 μg/mL (0.65 μM))?
Answer: no evidence for an effect

Question: What about the neutrophil phagocytic activity (human neutrophils; recombinant Ir-CPI 15.3 μg/mL (2 μM)) of the same molecule?
Answer: marginal (p-value just below threshold for significance) evidence for an increase

Question: And the “decrease of the phagocytic activity of human neutrophils” value (human neutrophils; whatever the concentration)?
Answer: did not induce a decrease

Question: What about the binding to plasmin (plasmin) of the same molecule?
Answer: binds

Question: What about the “tail bleeding time compared to NaCl-treated mice” value ([2]; High dose (20.5 mg/kg + 3.7 mg/kg/h), cancer-bearing mice) of the same molecule?
Answer: No significant effect

Question: And the “tail bleeding time compared to NaCl-treated mice” value ([2]; High dose (20.5 mg/kg + 3.7 mg/kg/h), cancer-free mice)?
Answer: No significant effect

Question: And the “tail bleeding time compared to NaCl-treated mice” value ([2]; Low dose (10.3 mg/kg + 1.9 mg/kg/h), cancer-bearing mice)?
Answer: No significant effect

Question: What about the “tail bleeding time compared to NaCl-treated mice” value ([2]; Low dose (10.3 mg/kg + 1.9 mg/kg/h), cancer-free mice) of the same molecule?
Answer: No significant effect

Question: And the “maximal concentration to reach to avoid solubility issues” value [3]?
Answer: 50 mg/mL

Question: And the venous thrombus formation [4]?
Answer: reduces venous thrombus formation
